Results on four molecules are retold here after patent US20220056141A1 (DEUTSCHES KREBSFORSCHUNGSZENTRUM STIFTUNG DES OFFENTLICHEN …, published 2022).

In test [1] the target is T1, CD3 on Jurkat cells (human, UniProt P07766 23-207).
T1 construct: whole, on cells; also called Jurkat (CD3+); human cluster of differentiation 3 (CD3) antigen
Briefly: flow cytometry (value under the bar; by the legend the EC50 of the binding to Jurkat cells of FIG. 6). Here is the method:
(§1) In addition, antibody binding affinity was also tested using binding of the antibody to its target(s) as expressed on cells. Analyzed is the binding of CC-2 variants to Nalm16 cells expressing FLT3 (FIG. 4) or Jurkat cells expressing CD3 (FIG. 6). Variants V1 to V9 (with V6 being V6-V6) were produced after transient transfection of CHO cells using the insert sequences listed above. The antibodies were purified by protein A affinity- and size exclusion-chromatography. […] To measure antibody binding to FLT3 and CD3 NALM16 (FLT3+) and Jurkat (CD3+) cells were incubated with the respective variants for 30 min, washed, stained with a goat anti human Fcγ-specific and PE-conjugated secondary antibody (Jackson Immuno Research), washed again and analyzed by flow cytometry (FACSCalibur, BD Biosciences).
Background: Flow cytometry measures light scatter and fluorescence of single cells or particles in a stream.

In test [2] the target is T1, CD3 on Jurkat cells. Briefly: flow cytometry on Jurkat cells (CD3+), 30 min incubation, PE-conjugated goat anti-human Fc-gamma secondary antibody. As for the experimental part:
as §1

Test [3] addresses T2, His tagged, recombinant FLT3 protein (Sino Biologicals) (human, UniProt P36888 27-541, limits assumed).
T2 construct: Bought protein; also called soluble recombinant FLT3 protein; not shown: His tag
T2 sequence (looked up): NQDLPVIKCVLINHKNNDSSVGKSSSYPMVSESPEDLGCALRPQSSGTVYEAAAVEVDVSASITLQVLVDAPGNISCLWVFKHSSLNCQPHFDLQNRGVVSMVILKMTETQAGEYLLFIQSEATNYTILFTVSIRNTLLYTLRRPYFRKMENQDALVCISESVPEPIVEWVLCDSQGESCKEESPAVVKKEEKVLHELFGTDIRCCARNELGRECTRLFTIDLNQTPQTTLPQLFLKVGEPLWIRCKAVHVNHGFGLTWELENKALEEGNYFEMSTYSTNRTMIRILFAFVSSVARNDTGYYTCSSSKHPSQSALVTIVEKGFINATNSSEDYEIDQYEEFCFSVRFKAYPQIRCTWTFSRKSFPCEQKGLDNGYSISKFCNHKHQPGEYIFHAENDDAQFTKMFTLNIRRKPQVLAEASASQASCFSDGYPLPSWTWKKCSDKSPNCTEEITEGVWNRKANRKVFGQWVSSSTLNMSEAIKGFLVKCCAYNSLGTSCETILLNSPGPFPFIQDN
The test can be described thus: SPR (Biacore X); antibody captured on protein A chip, His-tagged recombinant FLT3 in solution. Here is the method: FIG. 3 depicts binding of different CC-2 variants to soluble recombinant FLT3 protein. Respective antibody variants were immobilized to a Biacore chip coated with protein A and binding of His tagged, recombinant FLT3 protein (Sino Biologicals) was determined using a Biacore X instrument (GE Healthcare). Shown are the results of various mutated variants of the FLT3 antigen binding domain (V1 to V5).
In FIG. 3 the binding of different FLT3 binding domain variants V1 to V5 as indicated above was tested for their dissociation constant using a soluble recombinant FLT3 protein. Respective antibody variants were immobilized to a Biacore chip coated with protein A and binding of His tagged, recombinant FLT3 protein (Sino Biologicals) was determined using a Biacore X instrument (GE Healthcare).
(Surface plasmon resonance follows binding to a sensor surface in real time, without labels.)

Test [4] has as its target T3, FLT3 on Nalm16 cells (human, UniProt P36888 27-993).
T3 construct: whole, on cells; Endogenous FLT3 of the NALM16 leukemia cell line; also called NALM16 (FLT3+); NALM-16 cells expressing FLT3
T3 sequence (looked up): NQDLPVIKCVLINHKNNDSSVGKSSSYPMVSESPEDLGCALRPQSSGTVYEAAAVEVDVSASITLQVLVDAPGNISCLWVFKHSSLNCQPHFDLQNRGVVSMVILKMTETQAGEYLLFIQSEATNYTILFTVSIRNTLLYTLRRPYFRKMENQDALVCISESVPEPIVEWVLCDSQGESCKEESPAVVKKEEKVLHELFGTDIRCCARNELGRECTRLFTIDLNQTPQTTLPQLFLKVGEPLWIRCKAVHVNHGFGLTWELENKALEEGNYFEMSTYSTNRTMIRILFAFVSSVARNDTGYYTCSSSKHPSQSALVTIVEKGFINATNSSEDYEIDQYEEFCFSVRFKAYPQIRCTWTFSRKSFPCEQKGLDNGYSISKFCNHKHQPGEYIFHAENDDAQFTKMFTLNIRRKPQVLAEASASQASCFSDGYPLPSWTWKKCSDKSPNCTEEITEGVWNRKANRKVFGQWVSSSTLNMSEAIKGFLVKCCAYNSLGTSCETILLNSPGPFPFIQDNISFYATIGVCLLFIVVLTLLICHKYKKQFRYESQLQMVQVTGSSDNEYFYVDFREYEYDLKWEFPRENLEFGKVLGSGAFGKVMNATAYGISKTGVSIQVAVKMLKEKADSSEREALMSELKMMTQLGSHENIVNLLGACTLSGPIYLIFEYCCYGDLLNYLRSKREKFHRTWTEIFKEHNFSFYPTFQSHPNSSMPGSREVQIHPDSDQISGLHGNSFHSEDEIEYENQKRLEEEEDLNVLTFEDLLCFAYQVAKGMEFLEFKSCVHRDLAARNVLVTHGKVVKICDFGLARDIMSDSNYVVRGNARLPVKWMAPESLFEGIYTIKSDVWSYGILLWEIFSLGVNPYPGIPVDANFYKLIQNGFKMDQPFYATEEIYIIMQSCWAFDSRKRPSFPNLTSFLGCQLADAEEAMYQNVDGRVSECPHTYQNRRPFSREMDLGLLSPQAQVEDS
The test can be described thus: flow cytometry (row 'EC50, FACS binding' under the bars; binding to NALM16 cells of FIG. 4). Here is the method:
as §1

In test [5] the target is T3, FLT3 on Nalm16 cells. Briefly: flow cytometry on NALM16 cells (FLT3+), 30 min incubation, PE-conjugated goat anti-human Fc-gamma secondary antibody. As for the experimental part: as §1

T1 sequence (P07766 23-207): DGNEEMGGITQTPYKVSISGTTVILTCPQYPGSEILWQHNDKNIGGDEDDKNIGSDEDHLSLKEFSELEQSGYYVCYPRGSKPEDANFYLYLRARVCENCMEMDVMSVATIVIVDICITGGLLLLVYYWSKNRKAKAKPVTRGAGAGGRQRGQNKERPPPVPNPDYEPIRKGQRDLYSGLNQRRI

B1: bispecific FLT3xCD3 IgGsc antibody V6-V9 (bispecific antibody)
heavy: QVQLQQPGAELVKPGASLKLSCKSSGYTFTSYWMHWVRQRPGHGLEWIGEIDPSDSYKDYNQKFKDKATLTVDRSSNTAYMHLSSLTSDDSAVYYCARAITTTPFDFWGQGTTLTVSSASTKGPSVFPLAPSSKSTSGGTAALGCLVKDYFPEPVTVSWNSGALTSGVHTFPAVLQSSGLYSLSSVVTVPSSSLGTQTYICNVNHKPSNTKVDKKVEPKSCDKTHTCPPCPAPPVAGPSVFLFPPKPKDTLMISRTPEVTCVVVGVSHEDPEVKFNWYVDGVEVHNAKTKPREEQYNSTYRVVSVLTVLHQDWLNGKEYKCKVSNKQLPSPIEKTISKAKGQPREPQVYTLPPSRDELTKNQVSLTCLVKGFYPSDIAVEWESNGQPENNYKTTPPVLDSDGSFFLYSKLTVDKSRWQQGNVFSCSVMHEALHNHYTQKSLSLSPGKSGEVQLVESGGGLVQPGGSLRLSCAASGYSFTGYTMNWVRQAPGKGLEWVALINPYKGVSTYNQKFKDRFTISVDKSKNTAYLQMNSLRAEDTAVYYCARSGYYGDSDWYFDVWGQGTLVTVSSGGGGSGGGGSGGGGSDIQMTQSPSSLSASVGDRVTITCRASQDIRNYLNWYQQKPGKAPKLLIYYTSRLESGVPSRFSGSGSGTDYTLTISSLQPEDFATYYCQQGNTLPWTFGQGTKVEIK
light: DIVLTQSPATLSVTPGDSVSLSCRASQSISNNLHWYQQKSHESPRLLIKYASQSISGIPSRFSGSGSGTDFTLSINSVETEDFGVYFCQQSNTWPYTFGGGTKLEIKRTVAAPSVFIFPPSDEQLKSGTASVVCLLNNFYPREAKVQWKVDNALQSGNSQESVTEQDSKDSTYSLSSTLTLSKADYEKHKVYACEVTHQGLSSPVTKSFNRGEC
notes: Fc-attenuated IgGsc format; also called CC-2 V9
Broadly, the EC50 is the concentration needed to bring the measured effect to its halfway point. Read a low EC50 as an effect from little substance. By EC50 (read off the curve) is commonly meant the concentration at which the effect is half-maximal. On to B1, for which, in test [1], the concentration for a half-maximal effect (EC50) was determined as 4.1 nM. The “EC50 (read off the curve)” value in test [2] was about 5 nM.

B2: bispecific FLT3xCD3 IgGsc antibody V5-V6 (CC-2 variant 5) (bispecific antibody)
heavy: QVQLVQSGAEVKKPGGSLRLSCAASGYTFTSYWMHWVRQAPGQGLEWIGEIDPSDSYKDYNQKFKDRVTISRDTSKNTLYLQLSSLRAEDTAVYYCARAITTTPFDFWGQGTLVTVSSASTKGPSVFPLAPSSKSTSGGTAALGCLVKDYFPEPVTVSWNSGALTSGVHTFPAVLQSSGLYSLSSVVTVPSSSLGTQTYICNVNHKPSNTKVDKKVEPKSCDKTHTCPPCPAPPVAGPSVFLFPPKPKDTLMISRTPEVTCVVVGVSHEDPEVKFNWYVDGVEVHNAKTKPREEQYNSTYRVVSVLTVLHQDWLNGKEYKCKVSNKQLPSPIEKTISKAKGQPREPQVYTLPPSRDELTKNQVSLTCLVKGFYPSDIAVEWESNGQPENNYKTTPPVLDSDGSFFLYSKLTVDKSRWQQGNVFSCSVMHEALHNHYTQKSLSLSPGKSGDIQMTQSPSSLSASVGDRVTITCRASQDIRNYLNWYQQKPGKAPKLLIYYTSRLESGVPSRFSGSGSGTDYTLTISSLQPEDFATYYCQQGNTLPWTFGQGTKVEIKGGGGSGGGGSGGGGSEVQLVESGGGLVQPGGSLRLSCAASGYSFTGYTMNWVRQAPGKGLEWVALINPYKGVSTYNQKFKDRFTISVDKSKNTAYLQMNSLRAEDTAVYYCARSGYYGDSDWYFDVWGQGTLVTVSS
light: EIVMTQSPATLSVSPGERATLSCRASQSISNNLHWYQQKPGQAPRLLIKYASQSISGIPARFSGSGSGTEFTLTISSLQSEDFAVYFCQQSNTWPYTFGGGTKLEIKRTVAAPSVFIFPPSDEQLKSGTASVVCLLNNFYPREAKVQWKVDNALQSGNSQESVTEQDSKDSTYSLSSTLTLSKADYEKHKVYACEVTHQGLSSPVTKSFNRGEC
notes: Fc-attenuated IgGsc format; also called Version 5; CC-2 V5
In general, Kd refers to the concentration at which binding is half-saturated. The koff is the first-order rate constant of dissociation. The term kon denotes the second-order rate constant of association. For B2, in test [3], the Kd came to 160 nM, the koff worked out at 0.00449 s⁻¹ and the kon amounted to 29600 M⁻¹ s⁻¹. The molecule further yielded a half-maximal effective concentration (EC50) in test [4] of 1.3 nM. For the same molecule, in test [5], the “EC50 (read off the curve)” value was about 1 nM.

B3: bispecific FLT3xCD3 IgGsc antibody V3-V6 (CC-2 variant 3) (bispecific antibody)
heavy: QVQLVQSGAEVKKPGASVKVSCKASGYTFTSYWMHWVRQAPGQGLEWIGEIDPSDSYKDYNQKFKDRVTMTRDTSTSTVYMELSSLRSEDTAVYYCARAITTTPFDFWGQGTTVTVSSASTKGPSVFPLAPSSKSTSGGTAALGCLVKDYFPEPVTVSWNSGALTSGVHTFPAVLQSSGLYSLSSVVTVPSSSLGTQTYICNVNHKPSNTKVDKKVEPKSCDKTHTCPPCPAPPVAGPSVFLFPPKPKDTLMISRTPEVTCVVVGVSHEDPEVKFNWYVDGVEVHNAKTKPREEQYNSTYRVVSVLTVLHQDWLNGKEYKCKVSNKQLPSPIEKTISKAKGQPREPQVYTLPPSRDELTKNQVSLTCLVKGFYPSDIAVEWESNGQPENNYKTTPPVLDSDGSFFLYSKLTVDKSRWQQGNVFSCSVMHEALHNHYTQKSLSLSPGKSGDIQMTQSPSSLSASVGDRVTITCRASQDIRNYLNWYQQKPGKAPKLLIYYTSRLESGVPSRFSGSGSGTDYTLTISSLQPEDFATYYCQQGNTLPWTFGQGTKVEIKGGGGSGGGGSGGGGSEVQLVESGGGLVQPGGSLRLSCAASGYSFTGYTMNWVRQAPGKGLEWVALINPYKGVSTYNQKFKDRFTISVDKSKNTAYLQMNSLRAEDTAVYYCARSGYYGDSDWYFDVWGQGTLVTVSS
light: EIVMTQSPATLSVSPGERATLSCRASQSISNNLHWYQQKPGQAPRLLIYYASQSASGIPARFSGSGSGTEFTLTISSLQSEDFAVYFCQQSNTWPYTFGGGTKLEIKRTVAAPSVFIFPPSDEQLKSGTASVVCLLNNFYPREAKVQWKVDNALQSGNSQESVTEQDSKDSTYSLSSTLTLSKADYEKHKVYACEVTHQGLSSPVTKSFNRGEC
notes: Fc-attenuated IgGsc format; also called Version 3; CC-2 V3
On to B3, for which, in test [3], the dissociation constant Kd turned out to be 87000 nM, the dissociation rate constant (koff) stood at 0.0233 s⁻¹ and the kon came to 276 M⁻¹ s⁻¹. Further, the midpoint of the response in test [4], the EC50, lay at 8 nM. The 50% effective concentration (EC50 (read off the curve)) in test [5] is about 8 nM.

B4: bispecific FLT3xCD3 IgGsc antibody V4-V6 (CC-2 variant 4) (bispecific antibody)
heavy: QVQLVQSGAEVKKPGASVKVSCKASGYTFTSYWMHWVRQAPGQGLEWIGEIDPSDSYKDYNQKFKDRVTMTRDTSTSTVYMELSSLRSEDTAVYYCARAITTTPFDFWGQGTTVTVSSASTKGPSVFPLAPSSKSTSGGTAALGCLVKDYFPEPVTVSWNSGALTSGVHTFPAVLQSSGLYSLSSVVTVPSSSLGTQTYICNVNHKPSNTKVDKKVEPKSCDKTHTCPPCPAPPVAGPSVFLFPPKPKDTLMISRTPEVTCVVVGVSHEDPEVKFNWYVDGVEVHNAKTKPREEQYNSTYRVVSVLTVLHQDWLNGKEYKCKVSNKQLPSPIEKTISKAKGQPREPQVYTLPPSRDELTKNQVSLTCLVKGFYPSDIAVEWESNGQPENNYKTTPPVLDSDGSFFLYSKLTVDKSRWQQGNVFSCSVMHEALHNHYTQKSLSLSPGKSGDIQMTQSPSSLSASVGDRVTITCRASQDIRNYLNWYQQKPGKAPKLLIYYTSRLESGVPSRFSGSGSGTDYTLTISSLQPEDFATYYCQQGNTLPWTFGQGTKVEIKGGGGSGGGGSGGGGSEVQLVESGGGLVQPGGSLRLSCAASGYSFTGYTMNWVRQAPGKGLEWVALINPYKGVSTYNQKFKDRFTISVDKSKNTAYLQMNSLRAEDTAVYYCARSGYYGDSDWYFDVWGQGTLVTVSS
light: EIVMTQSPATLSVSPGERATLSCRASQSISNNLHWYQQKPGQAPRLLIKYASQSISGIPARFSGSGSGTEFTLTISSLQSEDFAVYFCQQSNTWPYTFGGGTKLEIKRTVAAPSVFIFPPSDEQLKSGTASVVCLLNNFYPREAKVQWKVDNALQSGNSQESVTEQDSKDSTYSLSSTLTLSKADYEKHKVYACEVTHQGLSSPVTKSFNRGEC
notes: Fc-attenuated IgGsc format; also called Version 4; CC-2 V4
B4: in test [3], the Kd came out at 480 nM, the dissociation rate constant (koff) worked out at 0.00887 s⁻¹ and the kon is 18800 M⁻¹ s⁻¹. Also, the EC50 in test [4] amounted to 5 nM. For the same molecule, in test [5], the concentration for a half-maximal effect (EC50 (read off the curve)) is about 5 nM.
